# Test system: Escherichia coli TOP10
# Test: shrunken log2 fold change of peptide-encoding DNA abundance (4.5 h post-induction vs induction); higher = less antimicrobial activity (less host growth inhibition)
# Details: time post-induction: 4.5 h; library: site-saturation at positions 5, 18, 19, 20
# 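Also: peptides expressed intracellularly from a pBAD plasmid library in pooled LB shake-flask culture, induced with 0.3% L-arabinose, DNA abundance read by NGS, three biological replicates, DESeq2 with apeglm shrinkage.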
row,Sequence,shrunken log2 fold change
1,RRIRARPPRLPRPRPRPKESPRP,0.602
2,RRIRDRPPRLPRPRPRPRLRPRP,0.122
3,RRIRRRPPRLPRPRPRPIWTPRP,0.181
4,RRIRHRPPRLPRPRPRPNHNPRP,-0.954
5,RRIRVRPPRLPRPRPRPNIMPRP,-0.512
6,RRIRHRPPRLPRPRPRPCVNPRP,-0.166
7,RRIRWRPPRLPRPRPRPAYDPRP,0.126
8,RRIRRRPPRLPRPRPRPVMAPRP,0.281
9,RRIRLRPPRLPRPRPRPRDYPRP,-0.00546
10,RRIRFRPPRLPRPRPRPGYHPRP,-1.45
11,RRIRNRPPRLPRPRPRPLMLPRP,-0.842
12,RRIRFRPPRLPRPRPRPIFEPRP,-0.0328
13,RRIRQRPPRLPRPRPRPGLQPRP,-0.0156
14,RRIRLRPPRLPRPRPRPNENPRP,-0.189
15,RRIRERPPRLPRPRPRPQILPRP,-0.179
16,RRIRKRPPRLPRPRPRPRYSPRP,-0.705
17,RRIRPRPPRLPRPRPRPMVNPRP,-0.0636
18,RRIRCRPPRLPRPRPRPDDNPRP,0.423
19,RRIRKRPPRLPRPRPRPLPCPRP,0.213
20,RRIRIRPPRLPRPRPRPDMPPRP,-0.109
21,RRIRYRPPRLPRPRPRPDFGPRP,-0.251
22,RRIRIRPPRLPRPRPRPGCAPRP,0.185
23,RRIRHRPPRLPRPRPRPHMLPRP,-0.0874
24,RRIRDRPPRLPRPRPRPNCAPRP,-0.0166
25,RRIRLRPPRLPRPRPRPYITPRP,-0.716

row,Sequence,shrunken log2 fold change
1,RRIRARPPRLPRPRPRPYIMPRP,-0.675
2,RRIRHRPPRLPRPRPRPYLTPRP,-0.556
3,RRIRYRPPRLPRPRPRPYTQPRP,-0.273
4,RRIRCRPPRLPRPRPRPGYDPRP,-0.167
5,RRIRNRPPRLPRPRPRPVMDPRP,0.0106
6,RRIRYRPPRLPRPRPRPREGPRP,0.251
7,RRIRPRPPRLPRPRPRPALKPRP,0.128
8,RRIRARPPRLPRPRPRPDKEPRP,0.0435
9,RRIRRRPPRLPRPRPRPPCLPRP,0.426
10,RRIRWRPPRLPRPRPRPCLIPRP,-0.151
11,RRIRTRPPRLPRPRPRPLFLPRP,-0.184
12,RRIRFRPPRLPRPRPRPYRWPRP,-0.0143
13,RRIRMRPPRLPRPRPRPDTIPRP,0.0143
14,RRIRTRPPRLPRPRPRPALGPRP,0.898
15,RRIRQRPPRLPRPRPRPSHVPRP,-0.367
16,RRIRVRPPRLPRPRPRPLRRPRP,0.644
17,RRIRPRPPRLPRPRPRPGAYPRP,0.0679
18,RRIRCRPPRLPRPRPRPGHKPRP,-0.514
19,RRIRLRPPRLPRPRPRPMLMPRP,-0.177
20,RRIRTRPPRLPRPRPRPGHVPRP,-0.144
21,RRIRYRPPRLPRPRPRPMCHPRP,-0.0146
22,RRIRTRPPRLPRPRPRPKKSPRP,-0.106
23,RRIRTRPPRLPRPRPRPVDYPRP,-0.172
24,RRIRTRPPRLPRPRPRPSWFPRP,-0.343
25,RRIRKRPPRLPRPRPRPCKNPRP,-0.0355

row,Sequence,shrunken log2 fold change
1,RRIRKRPPRLPRPRPRPTASPRP,0.783
2,RRIRVRPPRLPRPRPRPEEWPRP,0.015
3,RRIRQRPPRLPRPRPRPYVAPRP,-0.713
4,RRIRERPPRLPRPRPRPQHQPRP,-0.15
5,RRIRYRPPRLPRPRPRPFQEPRP,-0.152
6,RRIRNRPPRLPRPRPRPSICPRP,-0.328
7,RRIRKRPPRLPRPRPRPHRAPRP,0.515
8,RRIRFRPPRLPRPRPRPFTIPRP,-0.313
9,RRIRARPPRLPRPRPRPDAYPRP,0.522
10,RRIRWRPPRLPRPRPRPGILPRP,0.0649
11,RRIRNRPPRLPRPRPRPHNAPRP,-0.175
12,RRIRCRPPRLPRPRPRPYQHPRP,-0.381
13,RRIRQRPPRLPRPRPRPNEYPRP,-1.18
14,RRIRERPPRLPRPRPRPLCRPRP,-0.0964
15,RRIRIRPPRLPRPRPRPNHVPRP,-0.278
16,RRIRARPPRLPRPRPRPSKKPRP,0.23
17,RRIRQRPPRLPRPRPRPVTDPRP,0.05
18,RRIRKRPPRLPRPRPRPVYWPRP,-0.0795
19,RRIRCRPPRLPRPRPRPKDGPRP,0.408
20,RRIRRRPPRLPRPRPRPIGPPRP,0.147
21,RRIRLRPPRLPRPRPRPVPSPRP,0.157
22,RRIRWRPPRLPRPRPRPQCAPRP,0.572
23,RRIRRRPPRLPRPRPRPIKKPRP,0.907
24,RRIRHRPPRLPRPRPRPQMSPRP,-0.0899
25,RRIRNRPPRLPRPRPRPWKNPRP,0.175

row,Sequence,shrunken log2 fold change
1,RRIRNRPPRLPRPRPRPRYYPRP,-0.705
2,RRIRDRPPRLPRPRPRPNAQPRP,0.325
3,RRIRMRPPRLPRPRPRPCEAPRP,0.807
4,RRIRMRPPRLPRPRPRPNDCPRP,-0.00865
5,RRIRFRPPRLPRPRPRPPMYPRP,-0.395
6,RRIRMRPPRLPRPRPRPGQLPRP,0.0406
7,RRIRHRPPRLPRPRPRPYCVPRP,-0.154
8,RRIRMRPPRLPRPRPRPCIDPRP,0.428
9,RRIRARPPRLPRPRPRPKWYPRP,0.056
10,RRIRKRPPRLPRPRPRPNAHPRP,0.208
11,RRIRCRPPRLPRPRPRPKTDPRP,-0.0884
12,RRIRPRPPRLPRPRPRPRHGPRP,0.0491
13,RRIRRRPPRLPRPRPRPIPGPRP,0.292
14,RRIRTRPPRLPRPRPRPIAGPRP,-0.16
15,RRIRMRPPRLPRPRPRPLHMPRP,-0.0934
16,RRIRTRPPRLPRPRPRPPIAPRP,0.328
17,RRIRLRPPRLPRPRPRPKQVPRP,-0.0171
18,RRIRHRPPRLPRPRPRPVNRPRP,-0.26
19,RRIRERPPRLPRPRPRPSVIPRP,-0.259
20,RRIRHRPPRLPRPRPRPLKMPRP,-0.182
21,RRIRWRPPRLPRPRPRPKAPPRP,0.378
22,RRIRVRPPRLPRPRPRPVIFPRP,-0.0885
23,RRIRIRPPRLPRPRPRPDRNPRP,-0.913
24,RRIRERPPRLPRPRPRPNFWPRP,1.9
25,RRIRLRPPRLPRPRPRPRGTPRP,0.0155

row,Sequence,shrunken log2 fold change
1,RRIRLRPPRLPRPRPRPPHEPRP,0.269
2,RRIRWRPPRLPRPRPRPIIFPRP,-0.303
3,RRIRPRPPRLPRPRPRPKATPRP,0.463
4,RRIRVRPPRLPRPRPRPCKQPRP,-0.148
5,RRIRERPPRLPRPRPRPCCNPRP,-0.0562
6,RRIRKRPPRLPRPRPRPRQSPRP,0.0892
7,RRIRWRPPRLPRPRPRPHVGPRP,0.0547
8,RRIRHRPPRLPRPRPRPVWKPRP,-0.00992
9,RRIRKRPPRLPRPRPRPMQHPRP,0.589
10,RRIRDRPPRLPRPRPRPATEPRP,0.646
11,RRIRDRPPRLPRPRPRPVNCPRP,-0.328
12,RRIRNRPPRLPRPRPRPNHWPRP,-0.125
13,RRIRDRPPRLPRPRPRPAEYPRP,-0.491
14,RRIRPRPPRLPRPRPRPHEVPRP,-0.0664
15,RRIRQRPPRLPRPRPRPNLLPRP,-0.0134
16,RRIRNRPPRLPRPRPRPRGMPRP,0.151
17,RRIRCRPPRLPRPRPRPYGKPRP,-0.307
18,RRIRHRPPRLPRPRPRPIIVPRP,-0.0935
19,RRIRARPPRLPRPRPRPCEHPRP,0.0977
20,RRIRDRPPRLPRPRPRPTPPPRP,0.49
21,RRIRERPPRLPRPRPRPLFCPRP,-0.211
22,RRIRCRPPRLPRPRPRPMGVPRP,-0.152
23,RRIRYRPPRLPRPRPRPVSCPRP,-0.0731
24,RRIRPRPPRLPRPRPRPNDRPRP,-0.0965
25,RRIRTRPPRLPRPRPRPNTAPRP,-0.0235

row,Sequence,shrunken log2 fold change
1,RRIRPRPPRLPRPRPRPFSMPRP,-0.161
2,RRIRVRPPRLPRPRPRPENIPRP,-0.125
3,RRIRMRPPRLPRPRPRPICPPRP,-0.123
4,RRIRIRPPRLPRPRPRPRGPPRP,0.81
5,RRIRSRPPRLPRPRPRPWNSPRP,-0.19
6,RRIRSRPPRLPRPRPRPECIPRP,0.00247
7,RRIRWRPPRLPRPRPRPECRPRP,0.88
8,RRIRQRPPRLPRPRPRPVNIPRP,0.0209
9,RRIRLRPPRLPRPRPRPLKNPRP,-0.295
10,RRIRKRPPRLPRPRPRPVYKPRP,0.0665
11,RRIRFRPPRLPRPRPRPSTTPRP,-0.362
12,RRIRWRPPRLPRPRPRPRFWPRP,0.455
13,RRIRDRPPRLPRPRPRPCTDPRP,-0.00136
14,RRIRGRPPRLPRPRPRPTWLPRP,2.72
15,RRIRMRPPRLPRPRPRPFVKPRP,-1.03
16,RRIRYRPPRLPRPRPRPSNIPRP,-1.25
17,RRIRNRPPRLPRPRPRPHQSPRP,-0.104
18,RRIRVRPPRLPRPRPRPAWSPRP,0.192
19,RRIRQRPPRLPRPRPRPPNIPRP,-0.3
20,RRIRIRPPRLPRPRPRPMIHPRP,-0.363
21,RRIRTRPPRLPRPRPRPVKTPRP,0.12
22,RRIRLRPPRLPRPRPRPVQYPRP,-0.0382
23,RRIRLRPPRLPRPRPRPIQHPRP,-0.213
24,RRIRCRPPRLPRPRPRPHARPRP,0.204
25,RRIRNRPPRLPRPRPRPPNYPRP,-0.564
